In the nanobody polyreactivity screen of Harvey et al. (2022):

Assay: yeast display, Sf9 membrane polyspecificity reagent, FACS + sequencing; frameworks hold sequencing errors
Method in brief: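 In a synthetic yeast display library (Saccharomyces cerevisiae BJ5465), nanobody expression was induced with galactose for 36–48 hours. FACS gates were set low and high (top ~1%) using anti-HA fluorescence for expression and streptavidin fluorescence for binding of the Sf9 membrane reagent. Each polyreactivity label is drawn from the gate of origin.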

| Sequence | polyreactivity (PSR sort gate) |
| --- | --- |
| QVQLVESGGGLVQAGGSLRLSCAASGRIFPWYTMGWYRQAPGKERELVAAITSGGNTDYADSVKGRFTISRDNAKNNVYLQMNSLKPEDTAVYYCAAGGYPGTTYYGYDYWGQGTQVTVSS | low polyreactivity |
| QFQLVESGGGLVQAGGSLRLSCAASGGTFYSNAMGCYRQAPGKERDLVATITGGGRTYYADSVKGRFTISRDNAKNTVYLQMNSLKPEDNAVYYCAVRGYHQYKYGYWGQGTQVNVSS | high polyreactivity |
| QVQLVESGGGLVQAGGSLRLSCAASGFIFPQNAMGWYRQAPGKERELVAAIRWSGGRTYYADSVKGRFTISRDNAKNTVYLQMNSLNPEDTAVYYCAADVRQRGIYGPGPHYYWGQGTQVTVSS | high polyreactivity |
| QVQLVESGGGLVQAGGSLRLSCAASGSIFYYYTMGWYRQAPGKERELVAAITWSGSTYYADSVKGRFTISRDNAKNTVYLQMNSLKPEDTAVYYCNADALIAAYKYFPYTYRFNYWGQGTQVTVSS | low polyreactivity |
| QDQLVESGGGLLQAGGSLRLSCASSGSIFANYVMGWYRQAPGKEREYFAGISRSGGSTYYADSVKGRFKISRDNAKNTVYLQMTSLKPEDTAVYYCNAGAGQRVSGHSFEYWGQGTQVTVSS | high polyreactivity |
| QVQLVESGGGLVQAGASLRLSCAASGSTFGSYTMGWYRQAPWKERELVAAINWTGGNTYYADSVKGRFTISRDYAKNTVYLQMNSLKPEDTAVYYCAAAFYIYGVEGDYWGQGTQVTVSS | low polyreactivity |
| QVQLVESGVGLFQAGGSLRLSCAASGITFYSYAMGWYRQAPGKESQLVATISRSGSTYYADSVKGRFTISRDNAKNSVYLQMNSLKPEDTAVYYCAAYYAVRGATYRYGYWGQGTQVTVSS | high polyreactivity |
| QVQLVESGGGLVQAGGSLRLSCAASGFTFISYAMGWYRQAPGKERELVAVINQRGGRTYYADSVKGRFTISRDNAKNTVYLQMNSLKPEDTAVYYCATRLKSVSGGYNYWGQGTQVTVSS | high polyreactivity |
| QDQHVESGGGLVQAGGSLRLSCAASARIFVPYAMGWYRQAPGQERELVAAFSWRGGSTNYADSVKGRFTISRDNAKNTVYLQLNSLIPEDTAVYYCAAVPVRYRYSYGYYYWGQGTQVSVSS | high polyreactivity |
| QVQLVESGGGLVQAGGSLRLSCAASGFTYVYNAMGWYRQAPGTERELVAAISSGGSTYYADSVKGRFTISRDNAKYTVYLQMNSLKPEDTAVYYCARRSSWFKYEYWGQGTQVTVSS | low polyreactivity |
| KVQLVESGGVLVQEGGRLRLSCAASGRTFQLNAMGWYRQAPGKEMELVAAISTRGGSTYYADSVKGRFTISRDNAKNSVYLQMNSLKPEDTAGYYCAKDPSFTRGYKEGGGYDYWGQGTQVTVSS | high polyreactivity |
| QVQLVESGGGLVQAGGSLRLSCAASRSIFRSYAMGWYTQAPGKERELVAAITSSSGSTYYADSVKGRFTISRDNAKNTVYLQMNSLKPEDTAVYYCNAPYWKSRFRAYYHWGQGTQVTVSS | high polyreactivity |
| QVQLVESGGGLVQAGGSLRLSCAASGRIFVDYVMGWYRQAPGKERELVARITWIGGNTYYADSVKGRFTISRDNAKNTVYLQMKSLKPEETAVYYCNAGLTLLSRRHEGWYGYDYWGQGTQVTVSS | low polyreactivity |
| QVQLVESGGGLVQAGGSLRLSCAASGLTLSYNAMGWYRQAPGKERELVAAIRSGGSTNYADSVKGRFTISRDNAKNTVYLQMNSLKPEDTAVYYCAARFRYLPYRYGRYQSGYEYWGLGTQVTVSS | high polyreactivity |
| QVQLVESGGGLVQAGGSLRLSCAASGLTFVYYTRGWYRQAPGKERELVATITFTGGNTYYADSVKGRFTISRDNAKNTVYLQMNCLKPEDTAVYYCAKDSGPYKAEYDYGGQGTQVTVSS | low polyreactivity |
| QVHLVESGGGLVQAGGSLRLSCAASGRTFRVNAMGWNRKAPGKERELLAAISSRGGTTYYADSVKGRCTISSDYAKNTLYLQMYSLKAEDTAVYYCAAASDRDFPFDYWGQGTQVSVSS | high polyreactivity |
| QVQLVESGGGLVQAGGSLRLSCAASGRTFYTNTMGWYRPAPGKERELVAAISYSGSSTYYADSVKGRFTISRDNAKNTVYLQMNSLKPEDTAVYYCNAVRYYRYYYWGQGTQVTVSS | low polyreactivity |
| QVQLVESGGGLVQAGGSLRLSCAASGSTFSYYGMGSYRTAPGKERELVDAIDYSGDSTYDADSVKGRFTISRDNAKNTVYLQMNSLKPEDTAVYYCAADDYPWNRYAYWGQGTQVPVSS | low polyreactivity |
| QVQLVESGGGLVQAGGSLRLSCAASGSTFQYYAMGWYREAPGKERELVAAITHSGTRTYYADSVKGRYTISRDNAKNTVYLQMNTLKPEDTAGYYCAARGYGKYDYWGQGTQVTVSS | high polyreactivity |
| QVQLVESGGGLVQAGGRLRLSCPASGSIFGGYAMGWYRQAPGKERELVAGITRSGGSTYYADSVKGRFTISRYNAKNTVYFQMNSLKPEDTAVYYCAVEIQFYRSPRKVRSYDYWGQGTQVTVSS | low polyreactivity |
| QVQLVESGGGLVQAGGSLRLSCAASGRIFGTNAMGWYRQAPGKERELVATITRGGGNTYYADSVKGRFTISRDNAKNTVYLQMNSLKPEDTAVYYCAAKFNRFAWYSHYDYWGQGTLVTVSS | low polyreactivity |
| QDQLVESGGGLVQAGGSLRISCAASGSTFPLYAMGWYRQAPGKEMEFVAAIRWIGGSTYYADSVKGRFTISRDNAMNTVYLQMNSLKPEDTAVYYCAADYVVSAFDYWGQGTQVTVSS | low polyreactivity |

| Sequence | polyreactivity (PSR sort gate) |
| --- | --- |
| QVQLVESGAGLVQAGGSLRLICAASGRIFDRYTMGRYRQAPGKERELVAAITQRGTSTYYADSVKGRFTLSRDTAKNTVYLQMNSLKPEDTAGYYCAATALFSGLNKRYYWGQGTQLTVSS | high polyreactivity |
| QVQLVLSGGGLVQAGGSLRLSCAASGNTIIRYAMGWYRQEPGKESELVAAISYSGGRTYYADSVKGRFTISRDNAKNTVYLQMNSLKPEDTAVYYCAARYYRSGYRKKIYYWGQGTQVTVSS | high polyreactivity |
| QVQLVESGGGLVQAGGSLRLSCAASGITFGDNARGWYRQAPGKERELVAAISSGGSTDYADSVKGRFTISRDNAKNTVYLQMNSLKPEDTAVYYCAVDWVSVPEYDYWGQGTQVTVSS | low polyreactivity |
| QVQLEESGGGLVQAGGSLRLSCAASGYTFRGNARGWYRQAPGKERELVASISYSGGTTYADSVKGRFTISRDNAKNTVYLHRNSLKQEDTAVYYCNAAGFYYLYSHRQYEFWGQGTQLTVSS | low polyreactivity |
| QVQLVESGAGLFKAGGSLRLSCAASGRIFATNAMGWYRQAPGKERELVAAISSSGGSTYYADSVKGRFTISRDNAKNTVYLQMNSLKPEDTAVYDCAAAHSYYVHYYYWGQGTQGTVSS | high polyreactivity |
| QVQLVESGGGLVQAGGSLRLSCAASGRIFANNAMGWYRQAPGKEREFVAAINYSGTSTYYADSVKGRFTISRDNAKNTVYLQMNSLKPEDTAVYYCAADLPYYPYLYDYWGQGTQVTVSS | low polyreactivity |
| LVQLVESGGGLVQAGGSLRLICAASGITISYNAMGWYRQAPGKERELVAAITGSDGITYYADSVKGRFTISRDNAKNTVYLEMNSLKPEDTAVYYCAAEWWDYWYEYDYWGQGTQVTVSS | high polyreactivity |
| QVQLVESGGGLVQAGGRLRLSCAASGLTFTYNAMGWYRQEPGKERELVAAITSGGNTNYADSVKGRFTISRDNAKNTVYLQMNSLKPEDTAVYYCATDRKNGISGRYGYWGQGTQVTVSS | low polyreactivity |
| QVQLVESGGGLVQAGGSLRLSCAASGSTFTWYAMGWYRQAPGKERELVAAIRWSGGNTYYADSVKGRFTISRDTAKNTVYLHMNSLKPEDTGVYYCAAVSRTYSLQMYYWGQGTQVTVSS | high polyreactivity |
| QVQLVESGGGLVQAGGSLRLSCASSGSTFYNNALGWYRQAPGKERELVAAISNVSTYYADSVKGRFTISRDNAKNTVYLQLISLKPEDTAVYYCAARGLLWYYSWRYYFWGQGTQVTVSS | low polyreactivity |
| QVQLVESGGGLVQAGGSLRLSCAASGIIFRDYAMGWYRQAPGKERELVAAINLDGTSTYYADSVKGRFTISRDNAKKTVYLQMNSLKPEDTAVYYCAAEYDNADYINYFLDMYYWGQGTQVTVSS | low polyreactivity |
| QLQLVESGGGLVQAGGSLRLSCASTGSIFRPSPMGWYRPAPGKDRELVPDITWSGGSTYYADSVKGRFTISRDNAKNTVYLQMNSLKPEDTAVYYCAARFSYWARNSEYWGQGTQVTVSS | low polyreactivity |
| QVQLVESGRGLVQEGGSLRLSCAASGFTFYGYAMGWYRQAPGKERELVAAINSGGRTYYADSVKGRFTISRDNAKNSVYLQMNSLKPEDTAVYYCAAVSLYTSDYYWGQGTQVTVSS | high polyreactivity |
| QVQHVESGGGLVQAGGSLRLSCAASGSTFYHNAMGWYRQAPGKERELVAAITSGTSTYYADSVKGRFTISRDNAKNTVYLHMNSLKPEDTAVYYCAADSPWGGGYFVLYNYWGQGTQVTVSS | low polyreactivity |
| QVQLVESGGGLVQAGGSHRLSCAASGRIFFPYDMGWYRQAPGKDRELVAAITNSGGRTYYADSVKGRFTISRDNAKNTVYLQMNSLKPEDSAVYYCAAEYVSAKWEYGYWGQGTQVTVSS | low polyreactivity |
| QVQLVESGGGLVQAGGSLRLSCAASGFTFIYYAMGWYRQAPGKERELVAAISSRTGRTYYADSVKGRFTISRDNAKNTVYLQMNSLKPEDTAVYYCNADRNWRSGKFNYWGQGTQVTVSS | high polyreactivity |
| QVQLVESGGGLVQAGGSLRLSCAGSGFTLDGYVMGWYRQAPGQEREFVAAIRSSGGSTRYADSVKGRFTISRDNAKNTVYLQMNSLKPEDTALYYSAAVAYYWGYEQWYDYWGQGTQVTVSS | high polyreactivity |
| QVQLVESGGGLVQAGGSLRLSCAASGLTFGDYAMGWYRQAPGKEWELVAVITSSGSTYYADSVKGRFTISRDNAKNTVYLQMNSLKPEDTAVYYCATSAPAYRWRERYYYWGQGTQVTVSS | high polyreactivity |
| QVQLVESGGGLVQAGGSLRLSCAASGRIFRWYAMGWYRQAPGKERELVAAITRSGSTTYYADSVKGRFTISRDNAKNAVYLQMNSLKPEDTAVSYSAAGYRGGYGWSVRMDYWGQGTQVTVSS | high polyreactivity |
| QVWLQESGGGLVQACGSLRLSCAASGTISRDIFMGWYRQAPGKEREFVATIAQGGITNYADSVKGRFTISRDNAKNTLYLQMNSVKPGDTAVYYCAARDGNCYWFYYWGQGTQVTVSS | high polyreactivity |
| QVQLVESGGGLVQAGGSLRLSCDASGSIFGRNAMGWYRQAPGKERELVAAISWRGGRTYYADSVKGRFTISRDNAKNTVYLQMNSLKPEDTAVYYCAATSGRPYEYGYWGQGTQVTVSS | high polyreactivity |
